We go through five molecules from publication PMC1326212, “Dimerization and enzymatic activity of fungal 17β-hydroxysteroid dehydrogenase from the short-chain dehydrogenase/reductase superfamily” (BMC Biochemistry, 2005).

For orientation: Kd means the free concentration of one partner at which half of the binding sites on the other are occupied at equilibrium, for simple one-to-one binding. By Km is commonly meant the substrate concentration at which the rate is half of its maximum. In general, kcat refers to the maximal rate divided by the concentration of active sites. As a reminder, the kcat/Km is the turnover number divided by the Michaelis constant. A word on the stoichiometry N: it is the number of molecules, sites or subunits per partner or assembly.

Data set [1] concerns the target T1, 17β-HSDcl (Curvularia lunata, UniProt O93874, R129D).
T1 construct: gene 17HSDcl; GST fusion (pGex-17β-HSDcl) from E. coli JM107, GST cut off with thrombin; 28 kDa subunit; wild type and H111A homodimeric, H111L and R129D monomeric
Description: intrinsic fluorescence quenching titration. The data set is classed as binding. The source says: (§1) intrinsic fluorescence quenching titration on 17β-HSDcl

Data set [2] addresses T2, 17β-HSDcl (Curvularia lunata, UniProt O93874, H111L).
T2 construct: gene 17HSDcl; GST fusion (pGex-17β-HSDcl) from E. coli JM107, GST cut off with thrombin; 28 kDa subunit; wild type and H111A homodimeric, H111L and R129D monomeric
The data set is described as follows: intrinsic fluorescence quenching titration. The format is binding.
Excerpt: as §1

For data set [3], the target named is T3, 17β-HSDcl (Curvularia lunata, UniProt O93874, H111A).
T3 construct: gene 17HSDcl; GST fusion (pGex-17β-HSDcl) from E. coli JM107, GST cut off with thrombin; 28 kDa subunit; wild type and H111A homodimeric, H111L and R129D monomeric
Description: intrinsic fluorescence quenching titration. The format is binding.
Excerpt: as §1

In data set [4] the test system is NC(=O)C1=CN([C@@H]2O[C@H](COP(=O)(O)OP(=O)(O)OC[C@H]3O[C@@H](n4cnc5c(N)ncnc54)[C@H](OP(=O)(O)O)[C@@H]3O)[C@@H](O)[C@H]2O)C=CC1. Description: purified protein. Particulars: reduction of 4-estrene-3,17-dione (100 μM), 100 mM phosphate pH 8.0, 25°C, 1% DMF, varied: cofactor. The data set is classed as biochemical, Curvularia lunata.
Data set [5] has as its system NC(=O)c1ccc[n+]([C@@H]2O[C@H](COP(=O)(O)OP(=O)(O)OC[C@H]3O[C@@H](n4cnc5c(N)ncnc54)[C@H](OP(=O)(O)O)[C@@H]3O)[C@@H](O)[C@H]2O)c1. The data set is described as follows: purified protein. The data set is classed as biochemical, Curvularia lunata. Particulars: oxidation of 4-estrene-17β-ol-3-one (100 μM), 100 mM phosphate pH 8.0, 25°C, 1% DMF, varied: cofactor.
For data set [6], the target named is 17β-HSD type 1 (Homo sapiens) (UniProt P14061). As to conditions: cited from earlier work.
The target in data set [7] is 17β-HSDcl-His111Ala (Cochliobolus lunatus). Description: SEC; gel filtration on TSK G4000 SWxl, 100 mM phosphate buffer with 150 mM NaCl, pH 7.0; about 40 μg protein in 100 μl injected, 1.0 ml/min; mass by calibration standards. (SEC sorts molecules by how far they enter the pores of the column.)
Data set [8] deals with the molecule itself. The data set is described as above.

Regarding `NC(=O)c1ccc[n+]([C@@H]2O[C@H](COP(=O)(O)OP(=O)(O)OC[C@H]3O[C@@H](n4cnc5c(N)ncnc54)[C@H](OP(=O)(O)O)[C@@H]3O)[C@@H](O)[C@H]2O)c1` [NADP^+], the Kd on 17β-HSDcl [1] was found to be 12.8 µM; on 17β-HSDcl [2], 19.9 µM; on 17β-HSDcl [3] it was 5.8 µM.
Regarding 17β-HSDcl (Curvularia lunata; H111A), in data set [4], the Michaelis constant (Km) was 50.6 µM, the catalytic constant (kcat) is 2.4 s⁻¹ and the kcat/Km was 47000 M⁻¹ s⁻¹. In addition, in data set [5], the Km came to 4.6 µM, the kcat came to 0.9 s⁻¹ and the kcat/Km is 190000 M⁻¹ s⁻¹.
As to 17β-HSD type 1 (from UniProt P14061), in data set [6], the Kd was < 5 pM.
The molecule 17β-HSDcl-His111Ala (enzyme) displayed a stoichiometry N in data set [7] of 2.

B1: 17β-hydroxysteroid dehydrogenase from Cochliobolus lunatus, wild type (enzyme, UniProt O93874 1-270, looked up)
chain: MPHVENASETYIPGRLDGKVALVTGSGRGIGAAVAVHLGRLGAKVVVNYANSTKDAEKVVSEIKALGSDAIAIKADIRQVPEIVKLFDQAVAHFGHLDIAVSNSGVVSFGHLKDVTEEEFDRVFSLNTRGQFFVAREAYRHLTEGGRIVLTSSNTSKDFSVPKHSLYSGSKGAVDSFVRIFSKDCGDKKITVNAVAPGGTVTDMFHEVSHHYIPNGTSYTAEQRQQMAAHASPLHRNGWPQDVANVVGFLVSKEGEWVNGKVLTLDGGAA
notes: expected molecular mass 28 kDa; also called 17β-HSDcl; fungal 17β-HSD; source: E. coli JM107, GST fusion, purified (Glutathione Sepharose, thrombin cleavage)
Take B1: the “stoichiometry N” value in data set [8] was 2.
